Reference: the Human Domainome abundance scans (Beltran et al. 2025)
± gives the uncertainty stated by the source.

B1: Nucleosome-remodeling factor subunit BPTF, residues 2862 to 2918; numbered along this chain, Q12830 (parent)
chain: TKKDTKLYCICKTPYDESKFYIGCDRCQNWYHGRCVGILQSEAELIDEYVCPQCQST

Variants of: B1
Assay: abundance fitness (aPCA) (normalised: wild type 0, dead -1); higher = more abundant; growth selection in yeast, the domain comes from the species named
Conditions: Homo sapiens

Variant	abundance fitness
TKKDTKLYCICKTPYDESKFYIGCDRCQNWYDGRCVGILQSEAELIDEYVCPQCQST	-0.9 ± 0.16
TKKDTKLYCICKTPYDESKFYIGCDRCQNWYNGRCVGILQSEAELIDEYVCPQCQST	-0.879 ± 0.17
TKKDTKLYCICKTPYDESKFYIGCDRCQNWYTGRCVGILQSEAELIDEYVCPQCQST	-1.1 ± 0.13
TKKDTKLYCICKTPYDESKFYIGCDRCQNWYMGRCVGILQSEAELIDEYVCPQCQST	-0.944 ± 0.13
TKKDTKLYCICKTPYDESKFYIGCDRCQNWYGGRCVGILQSEAELIDEYVCPQCQST	-0.831 ± 0.12
TKKDTKLYCICKTPYDESKFYIGCDRCQNWYFGRCVGILQSEAELIDEYVCPQCQST	-0.891 ± 0.11
TKKDTKLYCICKTPYDESKFYIGCDRCQNWYSGRCVGILQSEAELIDEYVCPQCQST	-0.797 ± 0.094
TKKDTKLYCICKTPYDESKFYIGCDRCQNWYKGRCVGILQSEAELIDEYVCPQCQST	-0.979 ± 0.15
TKKDTKLYCICKTPYDESKFYIGCDRCQNWYPGRCVGILQSEAELIDEYVCPQCQST	-0.95 ± 0.14
TKKDTKLYCICKTPYDESKFYIGCDRCQNWYEGRCVGILQSEAELIDEYVCPQCQST	-0.929 ± 0.17
TKKDTKLYCICKTPYDESKFYIGCDRCQNWYYGRCVGILQSEAELIDEYVCPQCQST	-1 ± 0.17
TKKDTKLYCICKTPYDESKFYIGCDRCQNWYWGRCVGILQSEAELIDEYVCPQCQST	-1.1 ± 0.24
TKKDTKLYCICKTPYDESKFYIGCDRCQNWYRGRCVGILQSEAELIDEYVCPQCQST	-0.808 ± 0.11
TKKDTKLYCICKTPYDESKFYIGCDRCQNWYQGRCVGILQSEAELIDEYVCPQCQST	-0.898 ± 0.13
TKKDTKLYCICKTPYDESKFYIGCDRCQNWYAGRCVGILQSEAELIDEYVCPQCQST	-0.832 ± 0.12
TKKDTKLYCICKTPYDESKFYIGCDRCQNWYIGRCVGILQSEAELIDEYVCPQCQST	-1 ± 0.15
TKKDTKLYCICKTPYDESKFYIGCDRCQNWYLGRCVGILQSEAELIDEYVCPQCQST	-1.02 ± 0.085
TKKDTKLYCICKTPYDESKFYIGCDRCQNWYHARCVGILQSEAELIDEYVCPQCQST	-0.007 ± 0.064
TKKDTKLYCICKTPYDESKFYIGCDRCQNWYHFRCVGILQSEAELIDEYVCPQCQST	-0.192 ± 0.082
TKKDTKLYCICKTPYDESKFYIGCDRCQNWYHDRCVGILQSEAELIDEYVCPQCQST	-0.229 ± 0.098
TKKDTKLYCICKTPYDESKFYIGCDRCQNWYHCRCVGILQSEAELIDEYVCPQCQST	0.196 ± 0.12
TKKDTKLYCICKTPYDESKFYIGCDRCQNTYHGRCVGILQSEAELIDEYVCPQCQST	0.095 ± 0.099
TKKDTKLYCICKTPYDESKFYIGCDRCQNKYHGRCVGILQSEAELIDEYVCPQCQST	0.163 ± 0.1
TKKDTKLYCICKTPYDESKFYIGCDRCQNPYHGRCVGILQSEAELIDEYVCPQCQST	-0.155 ± 0.099

Variant	abundance fitness
TKKDTKLYCICKTPYDESKFYIGCDRCQNMYHGRCVGILQSEAELIDEYVCPQCQST	0.037 ± 0.1
TKKDTKLYCICKTPYDESKFYIGCDRCQNRYHGRCVGILQSEAELIDEYVCPQCQST	0.142 ± 0.076
TKKDTKLYCICKTPYDESKFYIGCDRCQNLYHGRCVGILQSEAELIDEYVCPQCQST	0.127 ± 0.075
TKKDTKLYCICKTPYDESKFYIGCDRCQNNYHGRCVGILQSEAELIDEYVCPQCQST	-0.159 ± 0.1
TKKDTKLYCICKTPYDESKFYIGCDRCQNYYHGRCVGILQSEAELIDEYVCPQCQST	0.083 ± 0.12
TKKDTKLYCICKTPYDESKFYIGCDRCQNSYHGRCVGILQSEAELIDEYVCPQCQST	-0.009 ± 0.081
TKKDTKLYCICKTPYDESKFYIGCDRCQNWVHGRCVGILQSEAELIDEYVCPQCQST	-0.341 ± 0.066
TKKDTKLYCICKTPYDESKFYIGCDRCQNWGHGRCVGILQSEAELIDEYVCPQCQST	-0.804 ± 0.079
TKKDTKLYCICKTPYDESKFYIGCDRCQNWMHGRCVGILQSEAELIDEYVCPQCQST	-0.412 ± 0.088
TKKDTKLYCICKTPYDESKFYIGCDRCQNWHHGRCVGILQSEAELIDEYVCPQCQST	-0.592 ± 0.13
TKKDTKLYCICKTPYDESKFYIGCDRCQNWSHGRCVGILQSEAELIDEYVCPQCQST	-0.693 ± 0.076
TKKDTKLYCICKTPYDESKFYIGCDRCQNWPHGRCVGILQSEAELIDEYVCPQCQST	-0.787 ± 0.1
TKKDTKLYCICKTPYDESKFYIGCDRCQNWEHGRCVGILQSEAELIDEYVCPQCQST	-0.772 ± 0.11
TKKDTKLYCICKTPYDESKFYIGCDRCQNWDHGRCVGILQSEAELIDEYVCPQCQST	-1.01 ± 0.17
TKKDTKLYCICKTPYDESKFYIGCDRCQNWNHGRCVGILQSEAELIDEYVCPQCQST	-0.573 ± 0.11
TKKDTKLYCICKTPYDESKFYIGCDRCQNWFHGRCVGILQSEAELIDEYVCPQCQST	0.01 ± 0.081
TKKDTKLYCICKTPYDESKFYIGCDRCQNWTHGRCVGILQSEAELIDEYVCPQCQST	-0.723 ± 0.095
TKKDTKLYCICKTPYDESKFYIGCDRCQNWLHGRCVGILQSEAELIDEYVCPQCQST	-0.279 ± 0.064
TKKDTKLYCICKTPYDESKFYIGCDRCQNWKHGRCVGILQSEAELIDEYVCPQCQST	-0.649 ± 0.11
TKKDTKLYCICKTPYDESKFYIGCDRCQNWRHGRCVGILQSEAELIDEYVCPQCQST	-0.79 ± 0.082
TKKDTKLYCICKTPYDESKFYIGCDRCQNWCHGRCVGILQSEAELIDEYVCPQCQST	-0.206 ± 0.094
TKKDTKLYCICKTPYDESKFYIGCDRCQNWWHGRCVGILQSEAELIDEYVCPQCQST	-0.527 ± 0.09
TKKDTKLYCICKTPYDESKFYIGCDRCQNWQHGRCVGILQSEAELIDEYVCPQCQST	-0.706 ± 0.11
